Experimental data as given in paper PMC9482650, “Quantitative fragmentomics allow affinity mapping of interactomes” (Nature Communications, 2022).

Tests used:
Assay in all cases: holdup assay
Set-up in all cases: key: below the threshold = too weak to quantify, mostly under pKd 3.1 to 4
[1] = biological target: GORASP2, Q9H8Y8
[2] = biological target: T1, TX1BP3, O14907
T1 sequence (O14907 10-122, limits assumed, looked up): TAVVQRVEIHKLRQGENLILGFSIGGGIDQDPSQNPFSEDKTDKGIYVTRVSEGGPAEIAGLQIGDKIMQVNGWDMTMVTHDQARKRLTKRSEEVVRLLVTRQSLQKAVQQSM

[3] = biological target: LAP2, Q96RT1
[4] = biological target: T2, APBA1_2, Q02410
T2 sequence (Q02410 742-832, limits assumed, looked up): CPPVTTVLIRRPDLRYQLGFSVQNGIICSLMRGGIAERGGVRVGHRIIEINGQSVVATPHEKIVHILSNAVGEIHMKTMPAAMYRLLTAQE

[5] = biological target: T3, SNTG2, Q9NY99
T3 sequence (Q9NY99 68-166, limits assumed, looked up): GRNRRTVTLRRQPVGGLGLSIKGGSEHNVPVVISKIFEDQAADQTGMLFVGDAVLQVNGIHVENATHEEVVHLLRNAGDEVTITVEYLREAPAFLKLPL

[6] = biological target: DLG4_3, P78352
[7] = biological target: NHERF2_2, Q15599
[8] = biological target: T4, ARHGAP21, Q5T5U3
T4 sequence (Q5T5U3 45-169, limits assumed, looked up): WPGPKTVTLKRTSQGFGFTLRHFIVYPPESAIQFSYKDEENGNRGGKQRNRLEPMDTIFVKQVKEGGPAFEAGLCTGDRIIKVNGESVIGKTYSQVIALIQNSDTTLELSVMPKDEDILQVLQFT

[9] = biological target: NHERF4_4, Q86UT5
[10] = biological target: T5, FRMPD1, Q5SYB0
T5 sequence (Q5SYB0 52-145, limits assumed, looked up): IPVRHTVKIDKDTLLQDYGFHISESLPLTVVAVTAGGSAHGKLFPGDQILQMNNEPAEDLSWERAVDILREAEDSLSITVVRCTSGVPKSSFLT

[11] = biological target: FRMPD3, Q5JV73
[12] = biological target: SNX27, Q96L92
[13] = biological target: T6, LIN7C, Q9NUP9
T6 sequence (Q9NUP9 88-185, limits assumed, looked up): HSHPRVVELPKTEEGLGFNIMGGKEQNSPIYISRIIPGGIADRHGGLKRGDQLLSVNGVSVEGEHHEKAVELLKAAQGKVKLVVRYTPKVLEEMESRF

[14] = biological target: T7, ARHGEF11, O15085
T7 sequence (O15085 42-136, limits assumed, looked up): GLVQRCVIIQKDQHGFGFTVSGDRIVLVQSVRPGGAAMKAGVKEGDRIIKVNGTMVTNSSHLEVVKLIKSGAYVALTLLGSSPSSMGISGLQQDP

[15] = biological target: DLG2_3, Q15700
[16] = biological target: T8, APBA1_1, Q02410
T8 sequence (Q02410 651-752, limits assumed, looked up): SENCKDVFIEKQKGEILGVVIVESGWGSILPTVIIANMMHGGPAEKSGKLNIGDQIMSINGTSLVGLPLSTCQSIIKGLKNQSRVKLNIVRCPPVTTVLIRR

[17] = biological target: NOS1, P29475
[18] = biological target: MAGI3_2, Q5TCQ9
[19] = biological target: MAST1, Q9Y2H9
[20] = biological target: SCRIB_3, Q14160
[21] = biological target: T9, TJP3_3, O95049
T9 sequence (O95049 375-456, limits assumed, looked up): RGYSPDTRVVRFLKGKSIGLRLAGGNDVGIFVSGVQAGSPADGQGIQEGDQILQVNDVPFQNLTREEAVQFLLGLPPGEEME

[22] = biological target: T10, PDZD2_2, O15018
T10 sequence (O15018 329-429, limits assumed, looked up): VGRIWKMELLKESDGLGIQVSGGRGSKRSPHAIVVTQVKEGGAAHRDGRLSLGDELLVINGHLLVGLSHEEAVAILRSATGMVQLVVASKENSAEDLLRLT

[23] = biological target: T11, DFNB31_3, Q9P202
T11 sequence (Q9P202 811-907, limits assumed, looked up): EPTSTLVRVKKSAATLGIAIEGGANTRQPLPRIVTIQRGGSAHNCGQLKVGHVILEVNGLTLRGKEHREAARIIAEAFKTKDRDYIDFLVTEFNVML

[24] = biological target: GRIP2_3, Q9C0E4
[25] = biological target: MAGI2_5, Q86UL8
[26] = biological target: Inadl_1, Q8NI35
[27] = biological target: GRID2IP_2, A4D2P6
[28] = plain residues with an end cap or a label only (N-terminal biotin on a linker: ttds)
[29] = plain residues with an end cap or a label only (N-terminal biotin on a linker: ahx)

GRID2IP_2, A4D2P6, sequence (A4D2P6 272-370): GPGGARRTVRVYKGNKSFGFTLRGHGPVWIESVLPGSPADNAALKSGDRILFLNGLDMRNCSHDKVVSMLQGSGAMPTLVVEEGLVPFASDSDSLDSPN
NOS1, P29475, sequence (P29475 9-101): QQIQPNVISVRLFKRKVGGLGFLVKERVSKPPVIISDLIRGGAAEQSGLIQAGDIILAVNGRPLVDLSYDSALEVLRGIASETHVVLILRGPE
DLG4_3, P78352, sequence (P78352 306-403): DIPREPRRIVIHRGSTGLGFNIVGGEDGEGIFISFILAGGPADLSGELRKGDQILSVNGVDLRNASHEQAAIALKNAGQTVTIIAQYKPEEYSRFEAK
GRIP2_3, Q9C0E4, sequence (Q9C0E4 238-339): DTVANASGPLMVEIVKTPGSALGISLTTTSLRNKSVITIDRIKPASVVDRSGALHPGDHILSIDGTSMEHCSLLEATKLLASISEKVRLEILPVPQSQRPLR
Inadl_1, Q8NI35, sequence (Q8NI35 113-229): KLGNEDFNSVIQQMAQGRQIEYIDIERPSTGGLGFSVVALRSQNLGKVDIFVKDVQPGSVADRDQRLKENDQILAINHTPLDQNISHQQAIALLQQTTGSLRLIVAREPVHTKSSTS
FRMPD3, Q5JV73, sequence (Q5JV73 12-100): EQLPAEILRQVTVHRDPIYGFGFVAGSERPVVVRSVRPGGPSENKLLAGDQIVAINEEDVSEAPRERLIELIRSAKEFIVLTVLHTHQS
MAGI3_2, Q5TCQ9, sequence (Q5TCQ9 398-503): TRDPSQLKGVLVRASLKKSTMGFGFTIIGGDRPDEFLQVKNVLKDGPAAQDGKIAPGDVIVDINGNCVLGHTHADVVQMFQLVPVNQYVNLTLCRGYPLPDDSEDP
LAP2, Q96RT1, sequence (Q96RT1 other isoform, or with tags, fused parts or gaps): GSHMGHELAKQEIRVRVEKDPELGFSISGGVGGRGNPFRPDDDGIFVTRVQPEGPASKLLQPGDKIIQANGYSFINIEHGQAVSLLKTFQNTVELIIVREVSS
NHERF4_4, Q86UT5, sequence (Q86UT5 464-550): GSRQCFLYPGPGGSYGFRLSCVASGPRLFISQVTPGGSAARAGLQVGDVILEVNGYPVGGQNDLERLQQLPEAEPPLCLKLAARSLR
SCRIB_3, Q14160, sequence (Q14160 999-1103): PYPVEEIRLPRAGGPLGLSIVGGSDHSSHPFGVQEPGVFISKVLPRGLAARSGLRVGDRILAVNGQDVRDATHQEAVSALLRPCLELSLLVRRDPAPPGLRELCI
MAST1, Q9Y2H9, sequence (Q9Y2H9 962-1065): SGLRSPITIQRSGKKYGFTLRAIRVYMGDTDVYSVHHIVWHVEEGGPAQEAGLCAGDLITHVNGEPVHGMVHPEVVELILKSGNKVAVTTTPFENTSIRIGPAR
MAGI2_5, Q86UL8, sequence (Q86UL8 915-1017): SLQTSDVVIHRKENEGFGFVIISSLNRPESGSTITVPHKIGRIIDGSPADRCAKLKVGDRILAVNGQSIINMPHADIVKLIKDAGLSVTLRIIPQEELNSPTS
NHERF2_2, Q15599, sequence (Q15599 142-238): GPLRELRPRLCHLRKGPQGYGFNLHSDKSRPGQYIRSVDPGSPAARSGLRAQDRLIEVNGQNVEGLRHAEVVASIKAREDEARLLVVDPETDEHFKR

B1: GPR6, P46095 (peptide)
chain: PFRSRSPSEV
- pKd [1, 28]: 3.81
- pKd [2, 28]: 3.61
- pKd [3, 28]: below the threshold
- pKd [4, 28]: 3.83
- pKd [5, 28]: below the threshold
- pKd [6, 28]: below the threshold
- pKd [7, 28]: below the threshold
- pKd [8, 28]: below the threshold
- pKd [9, 28]: below the threshold
- pKd [10, 28]: below the threshold
- pKd [11, 28]: below the threshold
- pKd [12, 28]: below the threshold
- pKd [13, 28]: 3.63
- pKd [14, 28]: below the threshold
- pKd [15, 28]: 3.68
- pKd [16, 28]: below the threshold
- pKd [17, 28]: 3.74
- pKd [18, 28]: 4.16
- pKd [19, 28]: below the threshold
- pKd [20, 28]: 3.49
- pKd [21, 28]: below the threshold
- pKd [22, 28]: 3.8
- pKd [23, 28]: below the threshold
- pKd [24, 28]: below the threshold
- pKd [25, 28]: below the threshold
- pKd [26, 28]: below the threshold
- pKd [27, 28]: below the threshold

B2: RASSF6, Q6ZTQ3 (peptide)
chain: KLVIKTETTV
- pKd [1, 28]: 3.81
- pKd [2, 28]: 3.72
- pKd [3, 28]: below the threshold
- pKd [4, 28]: below the threshold
- pKd [5, 28]: 3.99
- pKd [6, 28]: 4.39
- pKd [7, 28]: below the threshold
- pKd [8, 28]: below the threshold
- pKd [9, 28]: below the threshold
- pKd [10, 28]: below the threshold
- pKd [11, 28]: below the threshold
- pKd [12, 28]: 5.03
- pKd [13, 28]: 4.23
- pKd [14, 28]: 3.91
- pKd [15, 28]: 4.49
- pKd [16, 28]: below the threshold
- pKd [17, 28]: 3.58
- pKd [18, 28]: 5.22
- pKd [19, 28]: 4.68
- pKd [20, 28]: 4.3
- pKd [21, 28]: below the threshold
- pKd [22, 28]: 3.65
- pKd [23, 28]: below the threshold
- pKd [24, 28]: below the threshold
- pKd [25, 28]: 3.77
- pKd [26, 28]: below the threshold
- pKd [27, 28]: below the threshold

B3: SHKBP1, Q8TBC3 (peptide)
chain: PKMKLNETSF
- pKd [1, 29]: below the threshold
- pKd [2, 29]: below the threshold
- pKd [3, 29]: below the threshold
- pKd [4, 29]: below the threshold
- pKd [5, 29]: below the threshold
- pKd [6, 29]: below the threshold
- pKd [7, 29]: 4.32
- pKd [8, 29]: 3.5
- pKd [9, 29]: below the threshold
- pKd [10, 29]: below the threshold
- pKd [11, 29]: below the threshold
- pKd [12, 29]: 5.54
- pKd [13, 29]: 3.49
- pKd [14, 29]: below the threshold
- pKd [15, 29]: below the threshold
- pKd [16, 29]: below the threshold
- pKd [17, 29]: below the threshold
- pKd [18, 29]: below the threshold
- pKd [19, 29]: 4.32
- pKd [20, 29]: 4.49
- pKd [21, 29]: below the threshold
- pKd [22, 29]: below the threshold
- pKd [23, 29]: below the threshold
- pKd [24, 29]: below the threshold
- pKd [25, 29]: 3.53
- pKd [26, 29]: below the threshold
- pKd [27, 29]: below the threshold
